{"source": "paper PMC6395731", "experiment_in_all_cases": "EMSA", "key": {"[1]": {"system": "XRCC1 full length (Homo sapiens)", "conditions": "EMSA: 5 nM DNA, 12 mM Tris pH 8.0, 100 mM NaCl, 20 mM KCl, 3 mM MgCl2, 1 mM EDTA, 0.1% CHAPS, 10 mM 2-mercaptoethanol, 8.5% glycerol, BSA (0.02 mg/mL), room …"}, "[2]": {"system": "XRCC1 219-633 P1/3-YFP-NLS (Homo sapiens)", "conditions": "2 uM protein; EMSA: 5 nM DNA, 12 mM Tris pH 8.0, 100 mM NaCl, 20 mM KCl, 3 mM MgCl2, 1 mM EDTA, 0.1% CHAPS, 10 mM 2-mercaptoethanol, 8.5% glycerol, BSA (0.02 mg/mL), room …"}, "[3]": {"system": "XRCC1 219-633 (Homo sapiens)", "conditions": "EMSA: 5 nM DNA, 12 mM Tris pH 8.0, 100 mM NaCl, 20 mM KCl, 3 mM MgCl2, 1 mM EDTA, 0.1% CHAPS, 10 mM 2-mercaptoethanol, 8.5% glycerol, BSA (0.02 mg/mL), room …"}, "[4]": {"system": "XRCC1 219-415 (CDB) (Homo sapiens)", "conditions": "EMSA: 5 nM DNA, 12 mM Tris pH 8.0, 100 mM NaCl, 20 mM KCl, 3 mM MgCl2, 1 mM EDTA, 0.1% CHAPS, 10 mM 2-mercaptoethanol, 8.5% glycerol, BSA (0.02 mg/mL), room …"}}}
{"substance": "39 bp duplex", "values": [{"measurement": "Kd", "setting": "[1]", "result": 620, "unit": "nM"}, {"measurement": "binding signal (% of wild type)", "setting": "[2]", "result": 6}, {"measurement": "Kd", "setting": "[3]", "result": 700, "unit": "nM"}, {"measurement": "Kd", "setting": "[4]", "result": 670, "unit": "nM"}]}
